# According to PMC12340910, “Structural basis for transport and inhibition of nucleotide sugar transport in pathogenic fungi” (Research Square, 2025):
# T1: CaVrg4; C. albicans Vrg4; GDP-mannose transporter Vrg4 (Candida albicans, UniProt Q5A477)
# T1 construct: first 33 residues excluded; expressed in S. cerevisiae BJ5460 from pDDGFP-Leu2D; His-tagged GFP fusion cut by TEV; DDM/DM purified, reconstituted into liposomes; ~37 kDa
# T1 sequence (Q5A477 34-371): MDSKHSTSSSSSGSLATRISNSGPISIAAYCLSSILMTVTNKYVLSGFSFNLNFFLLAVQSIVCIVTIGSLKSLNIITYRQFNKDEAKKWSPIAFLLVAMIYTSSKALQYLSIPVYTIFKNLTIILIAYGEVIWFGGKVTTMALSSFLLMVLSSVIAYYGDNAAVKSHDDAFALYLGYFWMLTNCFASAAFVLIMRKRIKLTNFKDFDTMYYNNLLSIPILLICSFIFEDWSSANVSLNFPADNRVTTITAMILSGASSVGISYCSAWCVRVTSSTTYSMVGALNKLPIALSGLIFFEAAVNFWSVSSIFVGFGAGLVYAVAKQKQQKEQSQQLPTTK
# B1: Nanobody NB3 (VHH)
# VHH: QVQLVESGGGLVQPGGSLRLSCAASGSISEINVMGWYRQAPGKQRELVARITTGGSTNYADSVKGRFTISRDNAKNTVYLQMNSLKPEDTAVYMCNAHRRVVMEWGPLGYDYWGQGTQVTVSS
# notes: source: subcloned into the pSBinit vector and purified; not shown: Myc, C-terminal, kept; His, C-terminal, kept
# B2: Nanobody NB4 (VHH)
# VHH: QVQLVESGGGLVQAGGSLRLSCAASGRTFRSYTLGWFRQAPGKEREFVAAIKWSTDTTYYADSVKGRFTISGDNAKNTVYLQMNSLKPEDTAVYFCAARSLSTVIAGPEIPWPYNSWGQGTQVTVSS
# notes: as for B1
# Key:
# [1] = molecular target: T1, CaVrg4; C. albicans Vrg4; GDP-mannose transporter Vrg4; assay: cryo-EM structure, […] Å; type: binding; details: complex with nanobody NB4, cytoplasmic-facing state; endogenous co-purified ligand; density suboptimal for precise ligand modelling
# [2] = molecular target: T2, Candida albicans Vrg4, Avi-tagged (C terminus), biotinylated (Candida albicans (UniProt Q5A477, …, UniProt Q5A477)); assay: ELISA; dilution series of each nanobody captured by its Myc tag on MaxiSorp plates with protein A and anti-c-Myc antibody; 50 nM biotinylated CaVrg4 added for 40 minutes; streptavidin-peroxidase polymer, TMB, absorbance at 650 nm; KD from the 'one site - total binding' equation; details: both partners purified
# T2 construct: also called biotinylated CaVrg4; purified CaVrg4; source: S. cerevisiae BJ5460, purified as the untagged version, biotinylated using BirA ligase; not shown: Avi tag, C-terminal, kept
Molecule,"cryo-EM structure, 3.4 Å [1]",Kd [2]
Nc1nc2c(ncn2[C@@H]2O[C@H](COP(=O)(O)OP(=O)(O)O[C@H]3O[C@H](CO)[C@@H](O)[C@H](O)[C@@H]3O)[C@@H](O)[C@H]2O)c(=O)[nH]1 [GDP-mannose],"in the maps obtained for the NB4-bound structure, we observed density consistent with the endogenous ligand",–
B1,–,~3 nM
B2,–,~10 nM
